The record followed here is patent publication US20150344570A1 (published 2015).

B1: GpH7-B3 variant K326_06M/GpL16-k0 (antibody, human IgG1, kappa)
heavy: not shown
light: DIVMTQSPLSLPVTPGEPASISCQASESLVHSNRNTYLHWYLQKPGQSPQLLIYKVSNRFSGVPDRFSGSGSGTDFTLKISRVEAEDVGVYYCSQNTHVPPTFGQGTKVEIERTVAAPSVFIFPPSDEQLKSGTASVVCLLNNFYPREAKVQWKVDNALQSGNSQESVTEQDSKDSTYSLSSTLTLSKADYEKHKVYACEVTHQGLSSPVTKSFNRGEC
notes: also called Ho Ab K326_06M
B2: GpH7-B3 variant H268_19Q/GpL16-k0 (antibody, human IgG1, kappa)
heavy: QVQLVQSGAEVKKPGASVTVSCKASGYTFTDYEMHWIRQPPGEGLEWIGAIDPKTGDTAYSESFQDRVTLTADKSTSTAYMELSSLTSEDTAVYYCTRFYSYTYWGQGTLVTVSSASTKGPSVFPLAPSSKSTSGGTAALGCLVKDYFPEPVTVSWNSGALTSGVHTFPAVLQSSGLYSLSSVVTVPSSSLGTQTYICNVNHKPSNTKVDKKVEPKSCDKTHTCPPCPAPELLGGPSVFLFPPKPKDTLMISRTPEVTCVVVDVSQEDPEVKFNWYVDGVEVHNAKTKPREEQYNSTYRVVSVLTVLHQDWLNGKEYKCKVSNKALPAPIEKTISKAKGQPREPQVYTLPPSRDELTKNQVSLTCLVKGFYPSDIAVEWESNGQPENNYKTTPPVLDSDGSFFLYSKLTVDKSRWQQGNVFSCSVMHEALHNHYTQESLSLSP
light: B1 light
notes: also called Ho Ab H268_19Q
B3: GpH7-B3 variant Y296_09D/GpL16-k0 (antibody, human IgG1, kappa)
heavy: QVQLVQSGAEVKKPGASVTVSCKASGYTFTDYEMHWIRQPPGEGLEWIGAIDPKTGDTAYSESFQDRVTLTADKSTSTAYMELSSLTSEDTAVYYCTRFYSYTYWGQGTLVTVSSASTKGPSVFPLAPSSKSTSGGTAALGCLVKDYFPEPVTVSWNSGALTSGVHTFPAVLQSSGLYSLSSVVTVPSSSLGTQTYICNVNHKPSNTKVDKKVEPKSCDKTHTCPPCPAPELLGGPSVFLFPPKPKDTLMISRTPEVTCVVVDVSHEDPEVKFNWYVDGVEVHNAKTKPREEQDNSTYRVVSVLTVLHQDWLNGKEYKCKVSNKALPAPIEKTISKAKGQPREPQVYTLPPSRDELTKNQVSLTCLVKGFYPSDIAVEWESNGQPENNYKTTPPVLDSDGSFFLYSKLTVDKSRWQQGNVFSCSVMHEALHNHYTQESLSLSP
light: B1 light
notes: also called Ho Ab Y296_09D
B4: GpH7-B3 variant K334_16H/GpL16-k0 (antibody, human IgG1, kappa)
heavy: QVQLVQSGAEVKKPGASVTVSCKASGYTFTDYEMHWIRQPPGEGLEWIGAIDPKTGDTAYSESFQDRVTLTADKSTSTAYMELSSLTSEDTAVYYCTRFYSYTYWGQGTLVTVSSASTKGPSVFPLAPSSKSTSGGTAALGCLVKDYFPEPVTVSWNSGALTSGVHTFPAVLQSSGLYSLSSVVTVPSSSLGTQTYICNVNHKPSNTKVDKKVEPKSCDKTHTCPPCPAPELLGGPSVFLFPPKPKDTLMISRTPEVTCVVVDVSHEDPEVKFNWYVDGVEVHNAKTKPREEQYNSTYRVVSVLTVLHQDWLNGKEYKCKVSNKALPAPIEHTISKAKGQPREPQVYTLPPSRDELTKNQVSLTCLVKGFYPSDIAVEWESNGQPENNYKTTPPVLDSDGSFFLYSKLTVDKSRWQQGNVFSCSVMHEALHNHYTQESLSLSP
light: B1 light
notes: also called Ho Ab K334_16H
B5: GpH7-B3 variant S267_09D/GpL16-k0 (antibody, human IgG1, kappa)
heavy: not shown
light: B1 light
notes: also called Ho Ab S267_09D
B6: GpH7-B3 variant T335_20W/GpL16-k0 (antibody, human IgG1, kappa)
heavy: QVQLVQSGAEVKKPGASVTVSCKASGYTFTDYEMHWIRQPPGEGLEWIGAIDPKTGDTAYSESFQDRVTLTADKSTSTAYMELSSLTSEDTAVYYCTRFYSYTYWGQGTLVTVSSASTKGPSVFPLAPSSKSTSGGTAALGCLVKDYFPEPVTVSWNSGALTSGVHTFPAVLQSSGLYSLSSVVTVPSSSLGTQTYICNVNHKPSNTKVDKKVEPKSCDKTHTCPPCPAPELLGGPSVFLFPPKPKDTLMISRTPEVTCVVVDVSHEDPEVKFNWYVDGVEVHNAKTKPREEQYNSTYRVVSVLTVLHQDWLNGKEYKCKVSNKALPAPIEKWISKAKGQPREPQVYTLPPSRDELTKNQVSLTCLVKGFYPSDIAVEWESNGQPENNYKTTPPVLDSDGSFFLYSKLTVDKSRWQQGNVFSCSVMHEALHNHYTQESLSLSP
light: B1 light
notes: also called Ho Ab T335_20W
B7: GpH7-B3 variant K326_10E/GpL16-k0 (antibody, human IgG1, kappa)
heavy: not shown
light: B1 light
notes: also called Ho Ab K326_10E
B8: GpH7-B3 variant S239_09D/GpL16-k0 (antibody, human IgG1, kappa)
heavy: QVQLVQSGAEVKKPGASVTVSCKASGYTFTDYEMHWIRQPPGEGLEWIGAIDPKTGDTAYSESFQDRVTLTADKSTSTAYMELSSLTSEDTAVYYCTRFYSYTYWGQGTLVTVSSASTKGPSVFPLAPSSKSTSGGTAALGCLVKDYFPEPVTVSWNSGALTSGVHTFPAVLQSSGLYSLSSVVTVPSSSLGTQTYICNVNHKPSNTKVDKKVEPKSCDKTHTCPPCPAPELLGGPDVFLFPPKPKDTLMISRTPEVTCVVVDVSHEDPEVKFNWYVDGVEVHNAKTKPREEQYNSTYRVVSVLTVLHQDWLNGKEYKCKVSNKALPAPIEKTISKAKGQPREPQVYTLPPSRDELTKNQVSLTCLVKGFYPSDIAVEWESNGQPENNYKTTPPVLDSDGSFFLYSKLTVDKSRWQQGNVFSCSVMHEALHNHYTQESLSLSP
light: B1 light
notes: also called Ho Ab S239_09D
B9: GpH7-B3 variant L328_06M/GpL16-k0 (antibody, human IgG1, kappa)
heavy: not shown
light: B1 light
notes: also called Ho Ab L328_06M
B10: GpH7-B3 variant I336_06M/GpL16-k0 (antibody, human IgG1, kappa)
heavy: not shown
light: B1 light
notes: also called Ho Ab I336_06M
B11: GpH7-B3 variant L235_20W/GpL16-k0 (antibody, human IgG1, kappa)
heavy: not shown
light: B1 light
notes: also called Ho Ab L235_20W
B12: GpH7-B3 variant Y296_04F/GpL16-k0 (antibody, human IgG1, kappa)
heavy: not shown
light: B1 light
notes: also called Ho Ab Y296_04F
B13: GpH7-B3 variant S239_10E/GpL16-k0 (antibody, human IgG1, kappa)
heavy: not shown
light: B1 light
notes: also called Ho Ab S239_10E
B14: GpH7-B3 variant T335_18N/GpL16-k0 (antibody, human IgG1, kappa)
heavy: not shown
light: B1 light
notes: also called Ho Ab T335_18N
B15: GpH7-B3 variant G236_03V/GpL16-k0 (antibody, human IgG1, kappa)
heavy: not shown
light: B1 light
notes: also called Ho Ab G236_03V
B16: GpH7-B3 variant V266_08L/GpL16-k0 (antibody, human IgG1, kappa)
heavy: not shown
light: B1 light
notes: also called Ho Ab V266_08L
B17: GpH7-B3 variant Y296_18N/GpL16-k0 (antibody, human IgG1, kappa)
heavy: not shown
light: B1 light
notes: also called Ho Ab Y296_18N
B18: GpH7-B3 variant Y296_16H/GpL16-k0 (antibody, human IgG1, kappa)
heavy: not shown
light: B1 light
notes: also called Ho Ab Y296_16H
B19: GpH7-B3 variant S337_08L/GpL16-k0 (antibody, human IgG1, kappa)
heavy: not shown
light: B1 light
notes: also called Ho Ab S337_08L
B20: GpH7-B3 variant V266_07I/GpL16-k0 (antibody, human IgG1, kappa)
heavy: not shown
light: B1 light
notes: also called Ho Ab V266_07I
B21: GpH7-B3 variant E333_09D/GpL16-k0 (antibody, human IgG1, kappa)
heavy: not shown
light: B1 light
notes: also called Ho Ab E333_09D
B22: GpH7-B3 variant L234_20W/GpL16-k0 (antibody, human IgG1, kappa)
heavy: not shown
light: B1 light
notes: also called Ho Ab L234_20W
B23: GpH7-B3 variant S267_02A/GpL16-k0 (antibody, human IgG1, kappa)
heavy: not shown
light: B1 light
notes: also called Ho Ab S267_02A
B24: GpH7-B3 variant L235_04F/GpL16-k0 (antibody, human IgG1, kappa)
heavy: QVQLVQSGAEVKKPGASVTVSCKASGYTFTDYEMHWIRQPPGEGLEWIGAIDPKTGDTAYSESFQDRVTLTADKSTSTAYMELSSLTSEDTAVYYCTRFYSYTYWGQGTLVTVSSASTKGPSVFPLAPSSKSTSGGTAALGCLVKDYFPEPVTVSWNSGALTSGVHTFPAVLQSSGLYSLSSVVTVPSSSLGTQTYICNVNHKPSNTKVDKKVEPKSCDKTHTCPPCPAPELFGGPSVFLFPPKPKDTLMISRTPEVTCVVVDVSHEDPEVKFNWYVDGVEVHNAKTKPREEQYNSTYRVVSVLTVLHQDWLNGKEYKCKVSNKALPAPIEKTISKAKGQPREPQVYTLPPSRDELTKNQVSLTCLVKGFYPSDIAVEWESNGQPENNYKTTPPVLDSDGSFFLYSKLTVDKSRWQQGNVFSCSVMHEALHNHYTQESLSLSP
light: B1 light
notes: also called Ho Ab L235_04F
B25: GpH7-B3 variant T335_13S/GpL16-k0 (antibody, human IgG1, kappa)
heavy: not shown
light: B1 light
notes: also called Ho Ab T335_13S
B26: GpH7-B3 variant I336_08L/GpL16-k0 (antibody, human IgG1, kappa)
heavy: not shown
light: B1 light
notes: also called Ho Ab I336_08L
B27: GpH7-B3 variant K326_19Q/GpL16-k0 (antibody, human IgG1, kappa)
heavy: not shown
light: B1 light
notes: also called Ho Ab K326_19Q
B28: GpH7-B3 variant S337_07I/GpL16-k0 (antibody, human IgG1, kappa)
heavy: not shown
light: B1 light
notes: also called Ho Ab S337_07I
B29: GpH7-B3 variant T335_10E/GpL16-k0 (antibody, human IgG1, kappa)
heavy: not shown
light: B1 light
notes: also called Ho Ab T335_10E
B30: GpH7-B3 variant S324_02A/GpL16-k0 (antibody, human IgG1, kappa)
heavy: not shown
light: B1 light
notes: also called Ho Ab S324_02A
B31: GpH7-B3 variant G236_07I/GpL16-k0 (antibody, human IgG1, kappa)
heavy: not shown
light: B1 light
notes: also called Ho Ab G236_07I
B32: GpH7-B3 variant L234_04F/GpL16-k0 (antibody, human IgG1, kappa)
heavy: not shown
light: B1 light
notes: also called Ho Ab L234_04F
B33: GpH7-B3 variant T335_07I/GpL16-k0 (antibody, human IgG1, kappa)
heavy: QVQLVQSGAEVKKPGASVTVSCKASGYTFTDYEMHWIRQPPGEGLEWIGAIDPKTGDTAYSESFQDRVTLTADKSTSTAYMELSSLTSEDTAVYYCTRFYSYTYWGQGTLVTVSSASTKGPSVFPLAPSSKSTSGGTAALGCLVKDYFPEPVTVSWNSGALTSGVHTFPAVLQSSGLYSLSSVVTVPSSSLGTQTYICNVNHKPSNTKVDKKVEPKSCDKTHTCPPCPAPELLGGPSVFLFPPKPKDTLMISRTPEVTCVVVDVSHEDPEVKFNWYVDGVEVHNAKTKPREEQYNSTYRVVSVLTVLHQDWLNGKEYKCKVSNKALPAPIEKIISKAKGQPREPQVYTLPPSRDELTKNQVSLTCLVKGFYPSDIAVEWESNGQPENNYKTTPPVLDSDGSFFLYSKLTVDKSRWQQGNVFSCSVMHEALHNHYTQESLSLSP
light: B1 light
notes: also called Ho Ab T335_07I
B34: GpH7-B3 variant L328_14T/GpL16-k0 (antibody, human IgG1, kappa)
heavy: not shown
light: B1 light
notes: also called Ho Ab L328_14T
B35: GpH7-B3 variant S267_10E/GpL16-k0 (antibody, human IgG1, kappa)
heavy: not shown
light: B1 light
notes: also called Ho Ab S267_10E
B36: GpH7-B3 variant T335_01G/GpL16-k0 (antibody, human IgG1, kappa)
heavy: not shown
light: B1 light
notes: also called Ho Ab T335_01G
B37: GpH7-B3 variant S337_20W/GpL16-k0 (antibody, human IgG1, kappa)
heavy: not shown
light: B1 light
notes: also called Ho Ab S337_20W
B38: GpH7-B3 variant L328_20W/GpL16-k0 (antibody, human IgG1, kappa)
heavy: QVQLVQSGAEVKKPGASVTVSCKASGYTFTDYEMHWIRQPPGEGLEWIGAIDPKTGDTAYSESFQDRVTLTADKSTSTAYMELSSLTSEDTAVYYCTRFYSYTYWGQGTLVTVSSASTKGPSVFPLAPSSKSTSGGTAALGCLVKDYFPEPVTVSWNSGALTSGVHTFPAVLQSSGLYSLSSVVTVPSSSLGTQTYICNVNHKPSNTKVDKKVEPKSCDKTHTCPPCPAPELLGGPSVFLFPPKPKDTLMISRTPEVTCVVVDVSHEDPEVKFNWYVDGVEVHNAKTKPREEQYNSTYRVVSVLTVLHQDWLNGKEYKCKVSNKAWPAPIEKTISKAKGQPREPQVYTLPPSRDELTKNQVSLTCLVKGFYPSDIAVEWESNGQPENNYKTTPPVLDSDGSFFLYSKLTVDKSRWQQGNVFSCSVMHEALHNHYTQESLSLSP
light: B1 light
notes: also called Ho Ab L328_20W
B39: GpH7-B3 variant K334_04F/GpL16-k0 (antibody, human IgG1, kappa)
heavy: not shown
light: B1 light
notes: also called Ho Ab K334_04F
B40: GpH7-B3 variant S337_09D/GpL16-k0 (antibody, human IgG1, kappa)
heavy: not shown
light: B1 light
notes: also called Ho Ab S337_09D
B41: GpH7-B3 variant S239_08L/GpL16-k0 (antibody, human IgG1, kappa)
heavy: not shown
light: B1 light
notes: also called Ho Ab S239_08L
B42: GpH7-B3 variant T335_15Y/GpL16-k0 (antibody, human IgG1, kappa)
heavy: not shown
light: B1 light
notes: also called Ho Ab T335_15Y
B43: GpH7-B3 variant H268_18N/GpL16-k0 (antibody, human IgG1, kappa)
heavy: not shown
light: B1 light
notes: also called Ho Ab H268_18N
B44: GpH7-B3 variant H268_02A/GpL16-k0 (antibody, human IgG1, kappa)
heavy: not shown
light: B1 light
notes: also called Ho Ab H268_02A
B45: GpH7-B3 variant T335_19Q/GpL16-k0 (antibody, human IgG1, kappa)
heavy: not shown
light: B1 light
notes: also called Ho Ab T335_19Q
B46: GpH7-B3 variant K334_08L/GpL16-k0 (antibody, human IgG1, kappa)
heavy: not shown
light: B1 light
notes: also called Ho Ab K334_08L
B47: GpH7-B3 variant S337_10E/GpL16-k0 (antibody, human IgG1, kappa)
heavy: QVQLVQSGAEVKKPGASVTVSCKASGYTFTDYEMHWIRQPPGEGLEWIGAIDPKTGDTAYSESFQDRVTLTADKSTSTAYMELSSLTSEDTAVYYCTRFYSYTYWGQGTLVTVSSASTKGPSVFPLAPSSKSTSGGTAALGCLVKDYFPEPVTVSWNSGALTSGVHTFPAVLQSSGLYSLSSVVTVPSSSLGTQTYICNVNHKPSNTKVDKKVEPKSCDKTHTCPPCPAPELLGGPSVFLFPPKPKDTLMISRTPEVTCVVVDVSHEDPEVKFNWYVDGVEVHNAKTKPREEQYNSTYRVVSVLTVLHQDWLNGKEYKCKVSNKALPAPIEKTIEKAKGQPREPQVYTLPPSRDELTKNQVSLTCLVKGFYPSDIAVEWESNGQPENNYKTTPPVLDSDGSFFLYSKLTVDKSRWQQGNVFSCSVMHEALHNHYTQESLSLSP
light: B1 light
notes: also called Ho Ab S337_10E
B48: GpH7-B3 variant T335_16H/GpL16-k0 (antibody, human IgG1, kappa)
heavy: not shown
light: B1 light
notes: also called Ho Ab T335_16H
B49: GpH7-B3 variant A330_16H/GpL16-k0 (antibody, human IgG1, kappa)
heavy: not shown
light: B1 light
notes: also called Ho Ab A330_16H
B50: GpH7-B3 variant L235_15Y/GpL16-k0 (antibody, human IgG1, kappa)
heavy: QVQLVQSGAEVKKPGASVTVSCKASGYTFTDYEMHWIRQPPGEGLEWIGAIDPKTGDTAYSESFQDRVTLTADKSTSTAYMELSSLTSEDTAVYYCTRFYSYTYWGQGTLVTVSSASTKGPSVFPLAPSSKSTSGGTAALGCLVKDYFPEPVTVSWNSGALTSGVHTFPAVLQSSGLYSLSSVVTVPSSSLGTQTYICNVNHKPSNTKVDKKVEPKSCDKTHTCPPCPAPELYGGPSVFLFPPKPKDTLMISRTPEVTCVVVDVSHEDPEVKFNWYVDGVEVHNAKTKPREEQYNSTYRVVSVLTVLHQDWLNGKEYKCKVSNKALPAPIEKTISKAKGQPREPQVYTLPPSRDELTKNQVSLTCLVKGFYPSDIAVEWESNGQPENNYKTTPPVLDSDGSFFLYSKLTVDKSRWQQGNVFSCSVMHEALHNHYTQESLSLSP
light: B1 light
notes: also called Ho Ab L235_15Y
B51: GpH7-B3 variant L234_15Y/GpL16-k0 (antibody, human IgG1, kappa)
heavy: not shown
light: B1 light
notes: also called Ho Ab L234_15Y
B52: GpH7-A5/GpH7-B3 variant A327_09D/GpL16-k0 (antibody, human IgG1, kappa)
heavy 1: not shown
heavy 2: not shown
light: B1 light
notes: also called He Ab A327_09D
B53: GpH7-A5/GpH7-B3 variant E333_04F/GpL16-k0 (antibody, human IgG1, kappa)
heavy 1: not shown
heavy 2: not shown
light: B1 light
notes: also called He Ab E333_04F
B54: GpH7-A5/GpH7-B3 variant A330_19Q/GpL16-k0 (antibody, human IgG1, kappa)
heavy 1: not shown
heavy 2: not shown
light: B1 light
notes: also called He Ab A330_19Q
B55: GpH7-A5/GpH7-B3 variant E333_08L/GpL16-k0 (antibody, human IgG1, kappa)
heavy 1: not shown
heavy 2: not shown
light: B1 light
notes: also called He Ab E333_08L

T1 sequence (P12318 34-217): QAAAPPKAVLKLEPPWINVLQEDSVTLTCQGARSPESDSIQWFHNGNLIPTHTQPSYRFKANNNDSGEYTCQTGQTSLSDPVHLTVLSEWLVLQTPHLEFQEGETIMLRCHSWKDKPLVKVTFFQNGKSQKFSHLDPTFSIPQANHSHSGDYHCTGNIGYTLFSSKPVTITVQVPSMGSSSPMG

One experiment addresses T1, FcγRIIa H (human, UniProt P12318 34-217). Nature of the experiment: SPR Biacore, captured antibody, FcγR analyte; vs GpH7-B3/GpL16-k0 = 100. (In general: In SPR one partner is held on a chip, and binding of the other changes the refractive index at the surface.)
On to B1, for which the Ho/Con_2aH was 101 % of control.
Turning to B2, the Ho/Con_2aH was 102 % of control.
Still for that read-out and setting: the result for B3 reads 99.9 % of control.
For B4, the Ho/Con_2aH was 101 % of control.
On the same count and under the same terms, the figure for B5 is 91.5 % of control; for B6 it is 98.7 % of control.
The same measure, in the same setting: the figure for B7 is 101 % of control.
B8: the Ho/Con_2aH was 112 % of control.
For B9, the Ho/Con_2aH is 100 % of control.
Same read-out and setting: the figure for B10 is 100 % of control.
The same measure, in the same setting: the result for B11 reads 112 % of control; that for B12, 95 % of control.
On to B13, for which the Ho/Con_2aH is 91.4 % of control.
On the same count and under the same terms, the result for B14 reads 98 % of control.
With B15, the Ho/Con_2aH is 111 % of control.
As for B16, the Ho/Con_2aH was 91.5 % of control.
Still for that read-out and setting: the result for B17 reads 100 % of control; that for B18, 85.7 % of control; that for B19, 93.1 % of control.
On the same count and under the same terms, the result for B20 reads 104 % of control.
As to B21, the Ho/Con_2aH was 103 % of control.
On the same count and under the same terms, the result for B22 reads 55.3 % of control; that for B23, 120 % of control; that for B24, 101 % of control.
With B25, the Ho/Con_2aH is 101 % of control.
Same read-out and setting: the figure for B26 is 101 % of control.
Still for that read-out and setting: the result for B27 reads 100 % of control.
With B28, the Ho/Con_2aH was 94 % of control.
As for B29, the Ho/Con_2aH was 105 % of control.
Same read-out and setting: the figure for B30 is 102 % of control; for B31 it is 101 % of control.
The same measure, in the same setting: the figure for B32 is 54.2 % of control; for B33 it is 105 % of control.
On the same count and under the same terms, the result for B34 reads 110 % of control; that for B35, 98.5 % of control.
For B36, the Ho/Con_2aH was 101 % of control.
Consider B37, for which the Ho/Con_2aH is 96.6 % of control.
Still for that read-out and setting: the figure for B38 is 112 % of control; for B39 it is 103 % of control.
Still for that read-out and setting: the figure for B40 is 107 % of control; for B41 it is 87 % of control; for B42 it is 102 % of control.
On the same count and under the same terms, the figure for B43 is 110 % of control; for B44 it is 111 % of control.
As to B45, the Ho/Con_2aH is 103 % of control.
On the same count and under the same terms, the figure for B46 is 103 % of control; for B47 it is 101 % of control.
Same read-out and setting: the figure for B48 is 100 % of control; for B49 it is 101 % of control.
The same measure, in the same setting: the figure for B50 is 107 % of control; for B51 it is 43.8 % of control.

The next experiment has as its target T1, FcγRIIa H. The experiment can be described thus: SPR Biacore, captured antibody, FcγR analyte; vs GpH7-A5/GpH7-B3/GpL16-k0 = 100.
On to B52, for which the He/Con_2aH is 105 % of control.
Still for that read-out and setting: the result for B53 reads 102 % of control.
Still for that read-out and setting: the result for B54 reads 102 % of control.
Still for that read-out and setting: the result for B55 reads 102 % of control.
